“And” between values parts separate entries of the source, which are not always exact repeats. Equal values may be shown once.

The chains are these.
B1: Trastuzumab HCDR3 variant ARYGGGYYYYFDV (Fab, V domains shown)
VH: EVQLVESGGGLVQPGGSLRLSCAASGFNIKDTYIHWVRQAPGKGLEWVARIYPTNGYTRYADSVKGRFTISADTSKNTAYLQMNSLRAEDTAVYYCARYGGGYYYYFDVWGQGTLVTVSS
VL: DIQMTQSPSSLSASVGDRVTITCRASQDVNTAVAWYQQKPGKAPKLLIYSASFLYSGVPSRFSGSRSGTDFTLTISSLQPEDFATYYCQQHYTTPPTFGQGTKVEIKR
B2: Trastuzumab HCDR3 variant ARYGLNHYYVYPY (Fab, V domains shown)
VH: EVQLVESGGGLVQPGGSLRLSCAASGFNIKDTYIHWVRQAPGKGLEWVARIYPTNGYTRYADSVKGRFTISADTSKNTAYLQMNSLRAEDTAVYYCARYGLNHYYVYPYWGQGTLVTVSS
VL: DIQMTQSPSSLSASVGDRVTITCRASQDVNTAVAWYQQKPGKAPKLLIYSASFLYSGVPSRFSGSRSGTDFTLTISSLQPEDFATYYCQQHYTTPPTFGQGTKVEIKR
B3: Trastuzumab HCDR3 variant ARYPSGYYYYFDY (Fab, V domains shown)
VH: EVQLVESGGGLVQPGGSLRLSCAASGFNIKDTYIHWVRQAPGKGLEWVARIYPTNGYTRYADSVKGRFTISADTSKNTAYLQMNSLRAEDTAVYYCARYPSGYYYYFDYWGQGTLVTVSS
VL: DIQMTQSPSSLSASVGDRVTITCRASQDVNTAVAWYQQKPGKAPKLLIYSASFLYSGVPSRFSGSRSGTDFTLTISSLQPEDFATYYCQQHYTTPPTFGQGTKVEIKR
B4: Trastuzumab HCDR3 variant ARYYSDYSYTFSY (Fab, V domains shown)
VH: EVQLVESGGGLVQPGGSLRLSCAASGFNIKDTYIHWVRQAPGKGLEWVARIYPTNGYTRYADSVKGRFTISADTSKNTAYLQMNSLRAEDTAVYYCARYYSDYSYTFSYWGQGTLVTVSS
VL: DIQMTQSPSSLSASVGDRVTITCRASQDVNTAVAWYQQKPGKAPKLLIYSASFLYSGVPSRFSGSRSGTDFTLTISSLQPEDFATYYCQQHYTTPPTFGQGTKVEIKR
B5: Trastuzumab HCDR3 variant ARYGYGAYYYFDY (Fab, V domains shown)
VH: EVQLVESGGGLVQPGGSLRLSCAASGFNIKDTYIHWVRQAPGKGLEWVARIYPTNGYTRYADSVKGRFTISADTSKNTAYLQMNSLRAEDTAVYYCARYGYGAYYYFDYWGQGTLVTVSS
VL: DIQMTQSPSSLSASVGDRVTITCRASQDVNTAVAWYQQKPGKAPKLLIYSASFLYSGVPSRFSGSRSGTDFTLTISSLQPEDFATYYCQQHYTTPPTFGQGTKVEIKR
B6: Trastuzumab HCDR3 variant ASYGSGSYFSFPL (Fab, V domains shown)
VH: EVQLVESGGGLVQPGGSLRLSCAASGFNIKDTYIHWVRQAPGKGLEWVARIYPTNGYTRYADSVKGRFTISADTSKNTAYLQMNSLRAEDTAVYYCASYGSGSYFSFPLWGQGTLVTVSS
VL: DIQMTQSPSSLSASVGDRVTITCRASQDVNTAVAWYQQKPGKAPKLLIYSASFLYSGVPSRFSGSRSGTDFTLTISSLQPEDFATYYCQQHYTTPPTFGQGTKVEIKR
B7: Trastuzumab HCDR3 variant ARYGGYGYYWFDY (Fab, V domains shown)
VH: EVQLVESGGGLVQPGGSLRLSCAASGFNIKDTYIHWVRQAPGKGLEWVARIYPTNGYTRYADSVKGRFTISADTSKNTAYLQMNSLRAEDTAVYYCARYGGYGYYWFDYWGQGTLVTVSS
VL: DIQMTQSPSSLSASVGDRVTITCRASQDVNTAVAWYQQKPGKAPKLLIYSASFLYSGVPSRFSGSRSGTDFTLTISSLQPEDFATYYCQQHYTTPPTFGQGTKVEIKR
B8: Trastuzumab HCDR3 variant ATGSGGGGFSYGY (Fab, V domains shown)
VH: EVQLVESGGGLVQPGGSLRLSCAASGFNIKDTYIHWVRQAPGKGLEWVARIYPTNGYTRYADSVKGRFTISADTSKNTAYLQMNSLRAEDTAVYYCATGSGGGGFSYGYWGQGTLVTVSS
VL: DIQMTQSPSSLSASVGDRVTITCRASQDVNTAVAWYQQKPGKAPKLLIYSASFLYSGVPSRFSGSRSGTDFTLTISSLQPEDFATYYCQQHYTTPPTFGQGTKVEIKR
B9: Trastuzumab HCDR3 variant ARYVTANTYSYDP (Fab, V domains shown)
VH: EVQLVESGGGLVQPGGSLRLSCAASGFNIKDTYIHWVRQAPGKGLEWVARIYPTNGYTRYADSVKGRFTISADTSKNTAYLQMNSLRAEDTAVYYCARYVTANTYSYDPWGQGTLVTVSS
VL: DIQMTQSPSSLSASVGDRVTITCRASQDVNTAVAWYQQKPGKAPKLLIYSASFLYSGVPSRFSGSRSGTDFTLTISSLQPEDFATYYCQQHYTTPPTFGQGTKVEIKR
B10: Trastuzumab HCDR3 variant ASVDLGGFYDFRY (Fab, V domains shown)
VH: EVQLVESGGGLVQPGGSLRLSCAASGFNIKDTYIHWVRQAPGKGLEWVARIYPTNGYTRYADSVKGRFTISADTSKNTAYLQMNSLRAEDTAVYYCASVDLGGFYDFRYWGQGTLVTVSS
VL: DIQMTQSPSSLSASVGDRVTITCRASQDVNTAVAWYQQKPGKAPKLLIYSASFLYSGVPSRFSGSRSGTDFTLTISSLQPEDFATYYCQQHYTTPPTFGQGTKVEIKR
B11: Trastuzumab HCDR3 variant ARYGGLGGYTLAY (Fab, V domains shown)
VH: EVQLVESGGGLVQPGGSLRLSCAASGFNIKDTYIHWVRQAPGKGLEWVARIYPTNGYTRYADSVKGRFTISADTSKNTAYLQMNSLRAEDTAVYYCARYGGLGGYTLAYWGQGTLVTVSS
VL: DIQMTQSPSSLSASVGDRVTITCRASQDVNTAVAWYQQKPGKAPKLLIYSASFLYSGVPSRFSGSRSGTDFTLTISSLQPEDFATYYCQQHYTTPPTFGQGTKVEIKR
B12: Trastuzumab HCDR3 variant ARYGLYGSYYFRY (Fab, V domains shown)
VH: EVQLVESGGGLVQPGGSLRLSCAASGFNIKDTYIHWVRQAPGKGLEWVARIYPTNGYTRYADSVKGRFTISADTSKNTAYLQMNSLRAEDTAVYYCARYGLYGSYYFRYWGQGTLVTVSS
VL: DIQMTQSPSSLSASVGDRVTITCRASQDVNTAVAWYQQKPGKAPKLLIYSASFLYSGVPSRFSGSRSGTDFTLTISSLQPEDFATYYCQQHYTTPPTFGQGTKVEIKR
B13: Trastuzumab HCDR3 variant ARYGGLSYYSFDL (Fab, V domains shown)
VH: EVQLVESGGGLVQPGGSLRLSCAASGFNIKDTYIHWVRQAPGKGLEWVARIYPTNGYTRYADSVKGRFTISADTSKNTAYLQMNSLRAEDTAVYYCARYGGLSYYSFDLWGQGTLVTVSS
VL: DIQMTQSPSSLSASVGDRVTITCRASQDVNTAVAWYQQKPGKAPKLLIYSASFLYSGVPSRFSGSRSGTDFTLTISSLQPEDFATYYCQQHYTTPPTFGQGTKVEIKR
B14: Trastuzumab HCDR3 variant ARYGYDYYYYFDV (Fab, V domains shown)
VH: EVQLVESGGGLVQPGGSLRLSCAASGFNIKDTYIHWVRQAPGKGLEWVARIYPTNGYTRYADSVKGRFTISADTSKNTAYLQMNSLRAEDTAVYYCARYGYDYYYYFDVWGQGTLVTVSS
VL: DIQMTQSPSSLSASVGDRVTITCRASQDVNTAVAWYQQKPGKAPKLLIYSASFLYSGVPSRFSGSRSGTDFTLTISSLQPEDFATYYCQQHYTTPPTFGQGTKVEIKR
B15: Trastuzumab HCDR3 variant ARYPNYGFYMFDY (Fab, V domains shown)
VH: EVQLVESGGGLVQPGGSLRLSCAASGFNIKDTYIHWVRQAPGKGLEWVARIYPTNGYTRYADSVKGRFTISADTSKNTAYLQMNSLRAEDTAVYYCARYPNYGFYMFDYWGQGTLVTVSS
VL: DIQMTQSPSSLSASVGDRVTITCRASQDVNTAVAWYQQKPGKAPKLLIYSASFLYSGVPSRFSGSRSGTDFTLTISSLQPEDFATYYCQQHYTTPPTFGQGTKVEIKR
B16: Trastuzumab HCDR3 variant ARYGRNGSYSYDY (Fab, V domains shown)
VH: EVQLVESGGGLVQPGGSLRLSCAASGFNIKDTYIHWVRQAPGKGLEWVARIYPTNGYTRYADSVKGRFTISADTSKNTAYLQMNSLRAEDTAVYYCARYGRNGSYSYDYWGQGTLVTVSS
VL: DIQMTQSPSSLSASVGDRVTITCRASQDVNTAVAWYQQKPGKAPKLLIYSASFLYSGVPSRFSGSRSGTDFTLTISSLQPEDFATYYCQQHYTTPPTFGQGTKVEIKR
B17: Trastuzumab HCDR3 variant ARYPGGGIYDFDP (Fab, V domains shown)
VH: EVQLVESGGGLVQPGGSLRLSCAASGFNIKDTYIHWVRQAPGKGLEWVARIYPTNGYTRYADSVKGRFTISADTSKNTAYLQMNSLRAEDTAVYYCARYPGGGIYDFDPWGQGTLVTVSS
VL: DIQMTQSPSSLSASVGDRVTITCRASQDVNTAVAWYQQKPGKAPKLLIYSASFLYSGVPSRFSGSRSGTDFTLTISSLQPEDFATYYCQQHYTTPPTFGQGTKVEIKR
B18: Trastuzumab HCDR3 variant ARYMRPAFYPFLY (Fab, V domains shown)
VH: EVQLVESGGGLVQPGGSLRLSCAASGFNIKDTYIHWVRQAPGKGLEWVARIYPTNGYTRYADSVKGRFTISADTSKNTAYLQMNSLRAEDTAVYYCARYMRPAFYPFLYWGQGTLVTVSS
VL: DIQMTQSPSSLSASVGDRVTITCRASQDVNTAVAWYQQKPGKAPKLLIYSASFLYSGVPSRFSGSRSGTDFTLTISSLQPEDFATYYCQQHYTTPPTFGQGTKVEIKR
B19: Trastuzumab HCDR3 variant ARYNPFDGFYFDV (Fab, V domains shown)
VH: EVQLVESGGGLVQPGGSLRLSCAASGFNIKDTYIHWVRQAPGKGLEWVARIYPTNGYTRYADSVKGRFTISADTSKNTAYLQMNSLRAEDTAVYYCARYNPFDGFYFDVWGQGTLVTVSS
VL: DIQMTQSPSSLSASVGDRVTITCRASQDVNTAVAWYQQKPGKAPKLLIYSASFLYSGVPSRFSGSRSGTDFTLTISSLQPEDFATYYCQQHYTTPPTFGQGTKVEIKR
B20: Trastuzumab HCDR3 variant ASSGRLDLYDFRL (Fab, V domains shown)
VH: EVQLVESGGGLVQPGGSLRLSCAASGFNIKDTYIHWVRQAPGKGLEWVARIYPTNGYTRYADSVKGRFTISADTSKNTAYLQMNSLRAEDTAVYYCASSGRLDLYDFRLWGQGTLVTVSS
VL: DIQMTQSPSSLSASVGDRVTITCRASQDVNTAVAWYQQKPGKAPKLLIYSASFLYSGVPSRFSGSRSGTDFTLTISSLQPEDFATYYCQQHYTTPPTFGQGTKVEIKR
B21: Trastuzumab HCDR3 variant ARYGPYYYYAMDY (Fab, V domains shown)
VH: EVQLVESGGGLVQPGGSLRLSCAASGFNIKDTYIHWVRQAPGKGLEWVARIYPTNGYTRYADSVKGRFTISADTSKNTAYLQMNSLRAEDTAVYYCARYGPYYYYAMDYWGQGTLVTVSS
VL: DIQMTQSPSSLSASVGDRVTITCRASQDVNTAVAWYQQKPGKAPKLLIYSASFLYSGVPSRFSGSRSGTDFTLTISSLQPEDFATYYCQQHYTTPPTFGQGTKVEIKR
B22: Trastuzumab HCDR3 variant ARYGGYGNYWFDT (Fab, V domains shown)
VH: EVQLVESGGGLVQPGGSLRLSCAASGFNIKDTYIHWVRQAPGKGLEWVARIYPTNGYTRYADSVKGRFTISADTSKNTAYLQMNSLRAEDTAVYYCARYGGYGNYWFDTWGQGTLVTVSS
VL: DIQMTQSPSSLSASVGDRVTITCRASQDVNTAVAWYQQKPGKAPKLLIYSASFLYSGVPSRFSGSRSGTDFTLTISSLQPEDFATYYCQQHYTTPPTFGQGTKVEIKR
B23: Trastuzumab HCDR3 variant ARYGTGTYYYFLH (Fab, V domains shown)
VH: EVQLVESGGGLVQPGGSLRLSCAASGFNIKDTYIHWVRQAPGKGLEWVARIYPTNGYTRYADSVKGRFTISADTSKNTAYLQMNSLRAEDTAVYYCARYGTGTYYYFLHWGQGTLVTVSS
VL: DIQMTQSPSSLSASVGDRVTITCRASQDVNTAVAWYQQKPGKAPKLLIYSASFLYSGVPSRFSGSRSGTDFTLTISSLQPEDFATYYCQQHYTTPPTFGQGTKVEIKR
B24: Trastuzumab HCDR3 variant ARYYSYGGYYFDY (Fab, V domains shown)
VH: EVQLVESGGGLVQPGGSLRLSCAASGFNIKDTYIHWVRQAPGKGLEWVARIYPTNGYTRYADSVKGRFTISADTSKNTAYLQMNSLRAEDTAVYYCARYYSYGGYYFDYWGQGTLVTVSS
VL: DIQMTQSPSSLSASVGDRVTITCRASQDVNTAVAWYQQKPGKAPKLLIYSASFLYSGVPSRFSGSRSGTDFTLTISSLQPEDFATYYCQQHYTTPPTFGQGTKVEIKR
B25: Trastuzumab HCDR3 variant ARYLTDADFRLHY (Fab, V domains shown)
VH: EVQLVESGGGLVQPGGSLRLSCAASGFNIKDTYIHWVRQAPGKGLEWVARIYPTNGYTRYADSVKGRFTISADTSKNTAYLQMNSLRAEDTAVYYCARYLTDADFRLHYWGQGTLVTVSS
VL: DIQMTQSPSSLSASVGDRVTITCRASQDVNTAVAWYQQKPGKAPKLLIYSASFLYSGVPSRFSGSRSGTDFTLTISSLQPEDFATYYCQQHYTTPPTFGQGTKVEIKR
B26: Trastuzumab HCDR3 variant ASYYAPGSYGFDP (Fab, V domains shown)
VH: EVQLVESGGGLVQPGGSLRLSCAASGFNIKDTYIHWVRQAPGKGLEWVARIYPTNGYTRYADSVKGRFTISADTSKNTAYLQMNSLRAEDTAVYYCASYYAPGSYGFDPWGQGTLVTVSS
VL: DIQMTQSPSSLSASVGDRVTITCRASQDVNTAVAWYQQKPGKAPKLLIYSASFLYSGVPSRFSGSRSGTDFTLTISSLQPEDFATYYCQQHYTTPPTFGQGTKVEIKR
B27: Trastuzumab HCDR3 variant ARYYYDFGYYFDY (Fab, V domains shown)
VH: EVQLVESGGGLVQPGGSLRLSCAASGFNIKDTYIHWVRQAPGKGLEWVARIYPTNGYTRYADSVKGRFTISADTSKNTAYLQMNSLRAEDTAVYYCARYYYDFGYYFDYWGQGTLVTVSS
VL: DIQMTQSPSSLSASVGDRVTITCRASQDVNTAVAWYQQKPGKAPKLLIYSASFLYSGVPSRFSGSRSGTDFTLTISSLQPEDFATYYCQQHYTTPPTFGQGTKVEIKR
B28: Trastuzumab HCDR3 variant ARYYYDYGYYFDV (Fab, V domains shown)
VH: EVQLVESGGGLVQPGGSLRLSCAASGFNIKDTYIHWVRQAPGKGLEWVARIYPTNGYTRYADSVKGRFTISADTSKNTAYLQMNSLRAEDTAVYYCARYYYDYGYYFDVWGQGTLVTVSS
VL: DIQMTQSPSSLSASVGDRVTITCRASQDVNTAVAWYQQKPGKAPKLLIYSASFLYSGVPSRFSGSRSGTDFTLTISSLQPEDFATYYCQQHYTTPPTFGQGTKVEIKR
B29: Trastuzumab HCDR3 variant ARYIFGGPYYFDY (Fab, V domains shown)
VH: EVQLVESGGGLVQPGGSLRLSCAASGFNIKDTYIHWVRQAPGKGLEWVARIYPTNGYTRYADSVKGRFTISADTSKNTAYLQMNSLRAEDTAVYYCARYIFGGPYYFDYWGQGTLVTVSS
VL: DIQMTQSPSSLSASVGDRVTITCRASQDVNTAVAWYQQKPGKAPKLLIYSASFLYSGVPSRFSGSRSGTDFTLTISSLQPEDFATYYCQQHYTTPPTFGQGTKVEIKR

The target in this assay is human epidermal growth factor receptor 2 (HER2) extracellular domain (human, UniProt P04626 23-629). Description: SPR. (In general: SPR reads the build-up and loss of mass on a sensor chip optically.)
In the case of B1, binding was put at a Kd of 31.4 nM and the “log(KD (M))” value is -7.5 log(M).
On the same counts, the results for B2 are 135 nM and -6.87 log(M).
For B3, in that order: 90.1 nM and -7.05 log(M).
On to B4, for which the Kd (in general, the equilibrium constant for the complex coming apart) stood at 112 nM and the “log(KD (M))” value was -6.95 log(M).
B5: the affinity, expressed as Kd, was 54 nM and the “log(KD (M))” value is -7.27 log(M).
Take B6: binding was characterised by a dissociation constant (Kd) of 53.9 nM and the “log(KD (M))” value was -7.27 log(M).
B7: the Kd was 40 nM and the “log(KD (M))” value was -7.4 log(M).
On the same counts, the results for B8 are 182 nM and -6.74 log(M).
Regarding B9, the Kd was 83.6 nM and 83.5 nM; the “log(KD (M))” value was -7.08 log(M).
Turning to B10, binding was characterised by a dissociation constant (Kd) of 46.1 nM and the “log(KD (M))” value was -7.34 log(M).
As to B11, the equilibrium dissociation constant (Kd) amounted to 42.9 nM and the “log(KD (M))” value is -7.37 log(M).
On the same counts, the results for B12 are 71.8 nM and -7.14 log(M).
On the same counts, the results for B13 are 58.1 nM and -7.24 log(M).
For B14, in that order: 50 nM and -7.3 log(M).
Regarding B15, the Kd came out at 33.3 nM and the “log(KD (M))” value is -7.48 log(M).
On the same counts, the results for B16 are 38.2 nM and -7.42 log(M).
On the same counts, the results for B17 are 39.9 nM and -7.4 log(M).
For B18, the Kd is 50.9 nM and the “log(KD (M))” value is -7.29 log(M).
For B19, in that order: 156 nM and -6.81 log(M).
Regarding B20, the Kd was determined as 171 nM and the “log(KD (M))” value is -6.77 log(M).
For B21, the Kd is 41.3 nM and 41.2 nM; the “log(KD (M))” value was -7.38 log(M).
On to B22, for which the affinity, expressed as Kd, was 42.1 nM and the “log(KD (M))” value was -7.38 log(M).
Take B23: the Kd is 42.3 nM and 42.2 nM; the “log(KD (M))” value was -7.37 log(M).
Consider B24, for which binding was put at a Kd of 106 nM and the “log(KD (M))” value was -6.98 log(M).
For B25, in that order: 75.1 nM and -7.12 log(M).
On the same counts, the results for B26 are 135 nM and -6.87 log(M).
On the same counts, the results for B27 are 42.8 nM and -7.37 log(M).
As for B28, the Kd stood at 30 nM and the “log(KD (M))” value is -7.52 log(M).
As to B29, the equilibrium dissociation constant (Kd) was determined as 36 nM and the “log(KD (M))” value is -7.44 log(M).

Source of the values: patent US20250218531A1 (ABSCI, published 2025).
